Results as given in patent US20240301041A1 (Regeneron, published 2024).

What was measured:
IsdA.6xHis [1] = target: T1, IsdA.6xHis (Staphylococcus aureus, UniProt A6QG31 47-316); experiment: SPR (Biacore), mAb captured by anti-human Fc, IsdA.6xHis injected, 37 C
T1 construct: also called IsdA-6× His; IsdA.6×His
T1 sequence: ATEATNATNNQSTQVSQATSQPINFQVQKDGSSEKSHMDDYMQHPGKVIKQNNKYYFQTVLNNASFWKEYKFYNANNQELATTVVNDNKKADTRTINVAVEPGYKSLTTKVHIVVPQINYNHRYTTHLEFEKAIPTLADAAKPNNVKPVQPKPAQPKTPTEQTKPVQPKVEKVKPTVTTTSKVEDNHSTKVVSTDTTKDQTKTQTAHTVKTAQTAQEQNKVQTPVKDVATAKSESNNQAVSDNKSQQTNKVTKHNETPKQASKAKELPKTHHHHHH
Protocol: (§1) The equilibrium dissociation constants (KD) to Protein A and IsdA.6×His reagents binding to purified anti-IsdA*/* and anti-Protein A*/* monoclonal antibodies were determined using a real-time surface plasmon resonance based Biacore T200 or Biacore 4000 biosensor. All binding studies were performed in 10 mM HEPES, 150 mM NaCl, 3.4 mM EDTA and 0.05% v/v Tween-20, pH 7.4 (HBS-EP) running buffer at 25° C. and 37° C. […] Proteins were injected over the captured anti-IsdA*/* and anti-Protein A*/* monoclonal antibody surface for 3-3.5 minutes at a flow rate of 30-50 μL/minute, while the dissociation of monoclonal antibody bound IsdA.6×His and Protein A reagent was monitored for 5-10 minutes in HBS-EP running buffer. The association rate (ka) and dissociation rate (kd) were determined by fitting the real-time binding sensorgrams to a 1:1 binding model with mass transport limitation using Scrubber 2.0c curve-fitting software. Binding dissociation equilibrium constant (KD) and dissociative half-life (t½) were calculated from the kinetic rates as:

IsdA.6xHis [2] = target: T1, IsdA.6xHis; experiment: SPR (Biacore), mAb captured by anti-human Fc, IsdA.6xHis injected, 25 C
Protocol: as §1

B1: H1xH20334P2*/* (anti-IsdA) (antibody, V domains shown)
VH: EVQLVESGGGLVQPGRSLRVSCAASGFTFDDYAMHWVRQIPGKGLEWVSGIRWNSDTIGYADSVKGRFTISRDNAKNFLYLQMNSLRTEDTALYYCVKDMRVRGIIMYGMDVWGQGTTVTVSS
VL: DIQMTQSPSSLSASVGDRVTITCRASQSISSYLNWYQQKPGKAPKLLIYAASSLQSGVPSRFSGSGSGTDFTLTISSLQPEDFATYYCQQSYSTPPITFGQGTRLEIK
notes: also called anti-IsdA*/* monoclonal antibody
IsdA.6xHis [1]
  Kd: 3.49 nM
  koff: 0.00167 s⁻¹
  kon: 479000 M⁻¹ s⁻¹
  t½: 7 min
IsdA.6xHis [2]
  Kd: 1.28 nM
  koff: 0.000446 s⁻¹
  kon: 348000 M⁻¹ s⁻¹
  t½: 26 min
